Measured values as given in patent US20150005237A1 (UNIVERSIT T INNSBRUCK, published 2015).

Columns and labels:
[1] = target: T1, PKA regulatory subunit RIIβ (rat, type IIβ) fused to Venus YFP PCA fragment F[2] (rat, UniProt P12369 1-416); assay: Venus YFP protein-fragment complementation assay in COS7 cells
T1 construct: Expressed in COS7 or HEK293 cells from pcDNA3.1; also called RIIβ-F[2]; RegIIβ; not shown: Venus variant of yellow fluorescent protein (YFP), C-terminal fragment F[2], amino acids 159-239
T1 sequence (P12369 other isoform, or with tags, fused parts or gaps): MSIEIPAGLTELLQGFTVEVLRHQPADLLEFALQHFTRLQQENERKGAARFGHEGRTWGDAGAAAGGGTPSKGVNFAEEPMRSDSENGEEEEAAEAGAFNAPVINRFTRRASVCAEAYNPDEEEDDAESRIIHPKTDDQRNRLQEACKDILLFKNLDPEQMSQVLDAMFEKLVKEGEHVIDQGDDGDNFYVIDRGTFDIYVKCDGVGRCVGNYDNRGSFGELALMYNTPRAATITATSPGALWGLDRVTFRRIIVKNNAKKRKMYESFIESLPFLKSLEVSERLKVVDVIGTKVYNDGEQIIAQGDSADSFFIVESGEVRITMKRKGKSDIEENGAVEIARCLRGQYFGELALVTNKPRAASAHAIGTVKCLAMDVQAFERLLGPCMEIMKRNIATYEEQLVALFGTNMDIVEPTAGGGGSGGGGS

[2] = target: T2, PKA catalytic subunit (mouse, type α, PKAc) fused to Venus YFP PCA fragment F[2] (mouse, UniProt P05132 1-351); assay: as above
[3] = target: T2, PKA catalytic subunit (mouse, type α, …); assay: Venus YFP protein-fragment complementation assay in cells

binding result [1] | binding result [2] | binding result [3] | Binder
binds | no binding | – | Gαi3 fused to Venus YFP PCA fragment F[1] (other, UniProt Q9DC51 1-354, looked up, Prey fused to F[1]; also called Gαi isoform 3 prey; not shown: Venus variant of yellow fluorescent protein (YFP), N-terminal fragment F[1], amino acids 1-158) MGCTLSAEDKAAVERSKMIDRNLREDGEKAAKEVKLLLLGAGESGKSTIVKQMKIIHEDGYSEDECKQYKVVVYSNTIQSIIAIIRAMGRLKIDFGESARADDARQLFVLAGSAEEGVMTSELAGVIKRLWRDGGVQACFSRSREYQLNDSASYYLNDLDRISQTNYIPTQQDVLRTRVKTTGIVETHFTFKELYFKMFDVGGQRSERKKWIHCFEGVTAIIFCVALSDYDLVLAEDEEMNRMHESMKLFDSICNNKWFTDTSIILFLNKKDLFEEKIKRSPLTICYPEYTGSNTYEEAAAYIQCQFEDLNRRKDTKEVYTHFTCATDTKNVQFVFDAVTDVIIKNNLKECGLY
binds | no binding | – | Gαi2 fused to Venus YFP PCA fragment F[1] (other, UniProt P08752 1-355, looked up, Prey fused to F[1]; also called Gαi isoform 2 prey; not shown: Venus variant of yellow fluorescent protein (YFP), N-terminal fragment F[1], amino acids 1-158) MGCTVSAEDKAAAERSKMIDKNLREDGEKAAREVKLLLLGAGESGKSTIVKQMKIIHEDGYSEEECRQYRAVVYSNTIQSIMAIVKAMGNLQIDFADPQRADDARQLFALSCAAEEQGMLPEDLSGVIRRLWADHGVQACFGRSREYQLNDSAAYYLNDLERIAQSDYIPTQQDVLRTRVKTTGIVETHFTFKDLHFKMFDVGGQRSERKKWIHCFEGVTAIIFCVALSAYDLVLAEDEEMNRMHESMKLFDSICNNKWFTDTSIILFLNKKDLFEEKITQSSLTICFPEYTGANKYDEAASYIQSKFEDLNKRKDTKEIYTHFTCATDTKNVQFVFDAVTDVIIKNNLKDCGLF
– | – | binds | Phosphoinositide-dependent kinase 1 (PDK1) fused to Venus YFP PCA fragment F[1] (enzyme, UniProt Q9Z2A0 1-559, looked up, Prey fused to F[1]; not shown: Venus variant of yellow fluorescent protein (YFP), N-terminal fragment F[1], amino acids 1-158) MARTTSQLYDAVPIQSSVVLCSCPSPSMVRSQTEPGSSPGIPSGVSRQGSTMDGTTAEARPSTNPLQQHPAQLPPQPRKKRPEDFKFGKILGEGSFSTVVLARELATSREYAIKILEKRHIIKENKVPYVTRERDVMSRLDHPFFVKLYFTFQDDEKLYFGLSYAKNGELLKYIRKIGSFDETCTRFYTAEIVSALEYLHGKGIIHRDLKPENILLNEDMHIQITDFGTAKVLSPESKQARANSFVGTAQYVSPELLTEKSACKSSDLWALGCIIYQLVAGLPPFRAGNEYLIFQKIIKLEYHFPEKFFPKARDLVEKLLVLDATKRLGCEEMEGYGPLKAHPFFETITWENLHQQTPPKLTAYLPAMSEDDEDCYGNYDNLLSQFGFMQVSSSSSSHSLSTVETSLPQRSGSNIEQYIHDLDTNSFELDLQFSEDEKRLLLEKQAGGNPWHQFVENNLILKMGPVDKRKGLFARRRQLLLTEGPHLYYVDPVNKVLKGEIPWSQELRPEAKNFKTFFVHTPNRTYYLMDPSGNAHKWCRKIQEVWRQQYQSNPDAAVQ
